27 molecules from patent US12065466B2, “Methods and compositions for protein sequencing” (Quantum-Si Incorporated, priority 2020, dated 2024) can be followed below.

This experiment deals with amino acid at a terminal position of a polypeptide. The experiment can be described thus: Amino acid binding preference of recognition proteins (Tables 1 and 2). Conditions: Table 1, ClpS proteins; amino acid identity at a terminal position of a polypeptide; inferred from literature and/or demonstrated by the inventors. The text has this:
It should be appreciated that these sequences and other examples described herein are meant to be non-limiting, and recognition molecules in accordance with the application can include any homologs, variants thereof, or fragments thereof minimally containing domains or subdomains responsible for peptide recognition.

Substitutions are numbered along the chain they refer to. Names may count otherwise.

B1: PS568: PS372-homologous ClpS protein, SEQ ID NO: 82 (protein, listed as Dehalococcoidia bacterium)
chain: MTTPSLPTRETEVEERTEVEPERLYHLVLLDDDQHSYQYVIEMLASIFGYGSEKAWTLARIVDTEGRAILETASHAQCERHQSQIHAYGADSRIPTSVGSMSAVIEEAGTPPQT
As to B1, the “Binding Pref.” value is “I, L, V”.

B2: PS565: PS372-homologous ClpS protein, SEQ ID NO: 79 (protein)
chain: MSEFDHEHSGDTSVADPIVTTKTAPKPQKHAENETETRRQPPYNVIILNDEEHTFDYVIELLCKVFRHSLATAQELTWRIHLTGRAVVLTTHKELAELKRDQVLAYGPDPRMSVSKGPLDCFIEPAPGG
modifications: Aquisphaera sp. JC650
As for B2, the “Binding Pref.” value was “I, L, V”.

B3: PS569: PS372-homologous ClpS protein, SEQ ID NO: 83 (protein, listed as Planctomycetes bacterium)
chain: MYSKNQIKIYCSEDDKGQTATPLLEKKPKFAPLYHVILWDDNTHTYEYVIKLLMSLFRMTFEKAYQHTLEVDKKGRTICITTHLEKAELKQEQISNFGPDILMQNSKGPMSATIEPAN
Consider B3, for which the “Binding Pref.” value was “I, L, V”.

B4: PS575: PS372-homologous ClpS protein, SEQ ID NO: 89 (protein, listed as Leptospira kmetyi)
chain: MASTQTPDLNEITEESTKSTGGPWRVVLWDDNEHTYEYVIEMLMEICTMTVEKAFLHAVQVDQEKRTVVFSGEFEHAEHVQERILTYGADPRMSNSKGSMSATLEK
B4: the “Binding Pref.” value is listed as “I, L, V”.

B5: PS576: PS372-homologous ClpS protein, SEQ ID NO: 90 (protein)
chain: B4 chain with M44V, T48M, Q63K, V69D, F74L, T86N, K106R
modifications: Leptospira interrogans
As for B5, the “Binding Pref.” value is reported as “I, L, V”.

B6: atClpS1 C7S: ClpS protein, SEQ ID NO: 103 (protein)
chain: MIAEPISMQGEGDGEDGGTNRGTSVITRVKPKTKRPNLYRVLLLNDDYTPMEFVIHILERFFQKDREAATRIMLHVHQHGVGECGVFTYEVAETKVSQVMDFARQHQHPLQCVMEKK
Regarding B6, the “Binding Pref.” value is listed as “F, W, Y, L”.

B7: atClpS1 C7S, C84S, C112S: ClpS protein, SEQ ID NO: 104 (protein)
chain: B6 chain with C84S, C112S
For the molecule B7, the “Binding Pref.” value was “F, W, Y, L”.

B8: PS570: PS372-homologous ClpS protein, SEQ ID NO: 84 (protein, listed as Leptospira congkakensis)
chain: MTGAGASQPSILEETEVRPRLSDGPWKVVLWDDDFHTYEYVIEMLMDVCQMPWEKAFQHAVEVDTRKKTIVFSGELEHAEFVHERILNYGPDPRMGSSKGSMTATLEQ
Consider B8, for which the “Binding Pref.” value is recorded as “I, L, V”.

B9: PS571: PS372-homologous ClpS protein, SEQ ID NO: 85 (protein, listed as Leptospira meyeri)
chain: B8 chain with G3S, A4S, V17R, R18K, S73F, S97T, Q108K
For the molecule B9, the “Binding Pref.” value is “I, L, V”.

B10: Escherichia coli ClpS: ClpS protein, SEQ ID NO: 108 (protein, listed as Escherichia coli)
chain: MGKTNDWLDFDQLAEEKVRDALKPPSMYKVILVNDDYTPMEFVIDVLQKFFSYDVERATQLMLAVHYQGKAICGVFTAEVAETKVAMVNKYARENEHPLLCTLEKA
For the molecule B10, the “Binding Pref.” value is “F, W, Y, L”.

B11: Escherichia coli ClpS M40A: ClpS protein, SEQ ID NO: 109 (protein, listed as Escherichia coli)
chain: B10 chain with M40A
For B11, the “Binding Pref.” value is “F, W, Y, L”.

B12: PS567: PS372-homologous ClpS protein, SEQ ID NO: 81 (protein, listed as Planctomycetaceae bacterium)
chain: MADYEDAGEDALEDDFDHGTVTVAPQKPEPKKQSENKRQANRQPRYNVLLWDSEDHTFEYVEKMLRELFGHIKKQCQIIAEQVDQEGRAVVLTTTLEHAELKRDQIHAYGKDQLEGSKGSMWSTIEAVD
In the case of B12, the “Binding Pref.” value was “I, L, V”.

B13: atClpS2: Agrobacterium tumifaciens ClpS2, SEQ ID NO: 94 (protein, listed as Agrobacterium tumifaciens)
chain: MSDSPVDLKPKPKVKPKLERPKLYKVMLLNDDYTPREFVTVVLKAVFRMSEDTGRRVMMTAHRFGSAVVVVCERDIAETKAKEATDLGKEAGFPLMFTTEPEE
Turning to B13, the “Binding Pref.” value is on record as “F, W, Y”.

B14: atClpS2-V1 + C72S: ClpS protein, SEQ ID NO: 101 (protein)
chain: B13 chain with R36M, E37S, C72S
As for B14, the “Binding Pref.” value was “F, W, Y”.

B15: atClpS2 C72S: ClpS protein, SEQ ID NO: 100 (protein)
chain: B13 chain with C72S
In the case of B15, the “Binding Pref.” value is “F, W, Y”.

B16: Plasmodium falciparum ClpS: ClpS protein, SEQ ID NO: 110 (protein, listed as Plasmodium falciparum)
chain: MFKDLKPFFLCIILLLLLIYKCTHSYNIKNKNCPLNFMNSCVRINNVNKNTNISFPKELQKRPSLVYSQKNFNLEKIKKLRNVIKEIKKDNIKEADEHEKKEREKETSAWKVILYNDDIHNFTYVTDVIVKVVGQISKAKAHTITVEAHSTGQALILSTWKSKAEKYCQELQQNGLTVSIIHESQLKDKQKK
B16: the “Binding Pref.” value was “F, W, Y, L”.

B17: PS564: PS372-homologous ClpS protein, SEQ ID NO: 78 (protein)
chain: MFEEVVSVAVAEPKTKKQSRTKPKRQPPYHVILWDDTDHTFDYVIKMMGELFRMPREKGYQLAKEVDTSGRAICMTTTLELAELKRDQIHAFGRDDASAHCKGSMSATIEPAEG
modifications: Planctomycetes bacterium Poly21
In the case of B17, the “Binding Pref.” value is “I, L, V”.

B18: PS574: PS372-homologous ClpS protein, SEQ ID NO: 88 (protein, listed as Gemmata obscuriglobus)
chain: MANATPTPDVVPEEETETRTRRQPPYAVVLHNDDTNTMDFVVTVLRKVFGYTVEKCVELMLEAHTQGKVAVWIGALEVAELKADQIKSFGPDPHVTKNGHPLGVTVEPAA
As to B18, the “Binding Pref.” value is “I, L, V”.

B19: PS566: PS372-homologous ClpS protein, SEQ ID NO: 80 (protein, listed as Planctomycetaceae bacterium)
chain: MSSPSSLDDVQVSTSRAKPANETRTRKQPPYAVIVENDDHHTFLYVIEALMKVCGHAPEKGFVLAQQIHTQGKAMVWSGTLELAELKRDQLRGFGPDNYAPRPVTFPLGVTIEPLP
Consider B19, for which the “Binding Pref.” value is reported as “I, L, V”.

B20: PS378: ClpS protein, SEQ ID NO: 11 (protein)
chain: MXPQEVEEVSFLESKEHEIVLYNDDVNTFDHVIECLVKICNHNYLQAEQCAYIVHHSGKCGVKTGSLEELIPKCNALLEEGLSAEVI
modifications: not fully specified; X: residue not identified in the source
As for B20, the “Binding Pref.” value is given as “F, Y, W, L”.

B21: PS573: PS372-homologous ClpS protein, SEQ ID NO: 87 (protein, listed as Leptospira fluminis)
chain: MSQTPVIEETTVKDPVKTGGPWKVVLWDDDEHTYDYVIEMLMEVCVMTMEQAFHHAVEVDTQKKTVVYSGEFEHAEHIQELILEYGPDPRMAVSKGSMSATLEKS
As to B21, the “Binding Pref.” value is “I, L, V”.

B22: PS375: ClpS protein, SEQ ID NO: 8 (protein)
chain: MEAEPETKVLASIPGVGTSEPFRVVLFNDEEHSFDEVIFQIIKAVRCSRAKAEALTMEVHNSGRSIVYTGPIEQCIRVSAVLEEIELRTEIQS
Regarding B22, the “Binding Pref.” value was “F, L”.

B23: PS376: ClpS protein, SEQ ID NO: 9 (protein)
chain: MPTNDLDLLEKQDVKIERPKMYQVVMYNDDFTPFDFVVAVLMQFFNKGMDEATAIMMQVHMQGKGICGVFPKDIAETKATEVMKWAKVEQHPLRLQVEAQA
For B23, the “Binding Pref.” value was “F, W, L”.

B24: PS577: PS372-homologous ClpS protein, SEQ ID NO: 91 (protein, listed as Tuwongella immobilis)
chain: MSASSSQPGTTTKPDLDIQPRLLPPFHVILENDEFHSMEFVIDTLRKVLGVSIERAYQLMMTAHESGQAIIWTGPKEVAELKYEQVIGFHEKRSDGRDLGPLGCRIEPAV
Regarding B24, the “Binding Pref.” value is “I, L, V”.

B25: Synechococcus elongatus ClpS1: ClpS protein, SEQ ID NO: 105 (protein, listed as Synechococcus elongatus)
chain: MAVETIQKPETTTKRKIAPRYRVLLHNDDFNPMEYVVMVLMQTVPSLTQPQAVDIMMEAHTNGTGLVITCDIEPAEFYCEQLKSHGLSSSIEPDD
Consider B25, for which the “Binding Pref.” value was “F, W, Y”.

B26: PS572: PS372-homologous ClpS protein, SEQ ID NO: 86 (protein, listed as Blastopirellula marina)
chain: MSSEELSLQTRPKRQPPFGVILHNDDLNSFDYVIDSIRKVFHYELEKCFQLTLEAHETGRSLLWTGTLEGAELKQELLLSCGPDPIMLDKGGLPLKVTLEELPQ
In the case of B26, the “Binding Pref.” value was “I, L, V”.

B27: PS578: PS372-homologous ClpS protein, SEQ ID NO: 92 (protein, listed as Planctomycetes bacterium)
chain: MSGTVVESKPRNSTQLAPRWKVIVHDDPVTTFDFVLGVLRRVFAKPPGEARRITREAHDTGSALVDVLALEQAEFRRDQAHSLARAEGFPLTLTLEPAD
On to B27, for which the “Binding Pref.” value was “I, L, V”.
